Reference: the supplement of paper PMC9732359
± gives the uncertainty stated by the source.

Assay: protein stability index of a GFP-peptide fusion (yeast GPS) (PSI 1-4); higher = more stable; sorted into four equal gates, so the index is relative within each strain
Method in brief: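 Mid-log yeast cultures in leucine-free medium, carrying a pooled plasmid library, were sorted into four equal gates by their GFP/Cherry fluorescence ratio. Each plasmid expressed Cherry along with GFP fused upstream of a tiled 17-residue yeast protein peptide. Plasmids recovered from each gate were PCR-amplified and Illumina-sequenced, with reads assigned to strains by barcodes. The protein stability index was obtained by summing each gate's read frequency weighted by its gate number.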

Sequence | protein stability index (doa10∆) | protein stability index (pdr5∆) | protein stability index (san1∆) | protein stability index (ubr1∆)
LITTYSKLSKNISFYKL [SIN4] | 2.18 ± 0.16 | 2.47 ± 0.12 | 2.24 ± 0.11 | 2.69 ± 0.072
LEKCEAEFKKRKIEAET [YCS4] | 2.79 ± 0.14 | 3.17 ± 0.084 | 3.3 ± 0.21 | 2.98 ± 0.14
ARKYLQTRWGLPSGRQD [FAS2] | 2.54 ± 0.087 | 2.09 ± 0.12 | 2.12 ± 0.14 | 3.16 ± 0.11
RSMVRKWQTLIEANVTV [RPS1A] | 1.65 ± 0.053 | 1.62 ± 0.044 | 1.67 ± 0.079 | 2.24 ± 0.041
MVCETDVPSEDDPTQLV [RPO21] | 3.03 ± 0.069 | 3.24 ± 0.12 | 3.37 ± 0.1 | 2.56 ± 0.11
KKPLSMALNKVLITDHI [CDC53] | 1.93 ± 0.04 | 2.24 ± 0.038 | 2.18 ± 0.05 | 2.12 ± 0.028
SQKAKLMTFNAETKSYD [YLR335W/NUP2] | 2.55 ± 0.065 | 2.27 ± 0.046 | 2.3 ± 0.057 | 2.92 ± 0.053
VLVYDDKLEKVTHDCYR [RPC34] | 2.57 ± 0.1 | 3.18 ± 0.053 | 2.94 ± 0.069 | 2.96 ± 0.062
PLLVPGMTPCTVSPDFV [FAS1] | 1.64 ± 0.096 | 2.38 ± 0.055 | 1.98 ± 0.11 | 1.64 ± 0.065
QDENIGLSMLAKLKELA [RPC31] | 3.14 ± 0.071 | 3.46 ± 0.074 | 3.05 ± 0.092 | 3.16 ± 0.053
ELQMRSFLKEGDLLNAE [RRP4] | 2.71 ± 0.071 | 3.27 ± 0.11 | 3.07 ± 0.087 | 3.23 ± 0.08
TLSVSHGINLQNKKNLK [SSN2] | 2.7 ± 0.062 | 2.62 ± 0.054 | 2.65 ± 0.077 | 2.78 ± 0.063
FKSSVEMGKTDKSTKTA [YOR098C/NUP1] | 3.45 ± 0.095 | 3.24 ± 0.099 | 3.24 ± 0.05 | 3.43 ± 0.063
VVGTETRVNAQLESYEY [RRI1] | 2.72 ± 0.18 | 1.65 ± 0.11 | 3.33 ± 0.1 | 2.26 ± 0.1
MRDKSFGRTLASVTKEI [RPL12A] | 3.25 ± 0.1 | 3.08 ± 0.12 | 2.87 ± 0.13 | 2.81 ± 0.18
DIPGVRFKVVKVSGVSL [RPS23A] | 1.62 ± 0.084 | 1.11 ± 0.1 | 1.25 ± 0.29 | 1.06 ± 0.079
SLINSHLKILASSNFPF [RPC82] | 2.64 ± 0.066 | 2.3 ± 0.075 | 2.28 ± 0.073 | 2.02 ± 0.042
FEYEGVQDIIGNGKLSE [RPN1] | – | 2.85 ± 0.18 | 3.21 ± 0.26 | 2.74 ± 0.1
SNSDNCPEEFAESMCQE [SNF5] | 3.25 ± 0.065 | 3.33 ± 0.069 | 3.27 ± 0.041 | 3.01 ± 0.068
SNQFKRSLATAVATPKA [COR1] | 1.55 ± 0.051 | 1.75 ± 0.049 | 1.35 ± 0.089 | 1.3 ± 0.041
TFKDGVILGADSRTTTG [PRE3] | – | 2.8 ± 0.12 | 2.69 ± 0.19 | 2.59 ± 0.14
DEVGRRSMLTVVRNMLA [YCG1] | 1.54 ± 0.077 | 2.09 ± 0.079 | 3.01 ± 0.13 | 1.52 ± 0.069
EIVNMVPSHVPQVLINR [SIR2] | 3.13 ± 0.11 | 2.93 ± 0.079 | 2.53 ± 0.11 | 2.88 ± 0.054
ASDMSDEDIITIFKYLT [CDC53] | 2.84 ± 0.14 | 3.09 ± 0.13 | 3.23 ± 0.082 | 3.2 ± 0.061
ESGLVNADLDVKDELMF [RPO21] | 3.16 ± 0.059 | 3.27 ± 0.06 | 3.23 ± 0.059 | 3.3 ± 0.038
IAAGTYGKVYKAKRQIN [SSN3] | 1.68 ± 0.061 | 2.03 ± 0.043 | 2.24 ± 0.068 | 2.29 ± 0.048
SNLEKLPKYKEKKAASA [MED7] | 2.14 ± 0.06 | 2.82 ± 0.06 | 2.83 ± 0.06 | 2.25 ± 0.057

Sequence | protein stability index (doa10∆) | protein stability index (pdr5∆) | protein stability index (san1∆) | protein stability index (ubr1∆)
SATFLRIVGSELIQKYL [RPT2] | 1.41 ± 0.066 | 1.46 ± 0.071 | 1.18 ± 0.13 | 1.28 ± 0.051
RQVYKPVLDNPFTNEAH [POP3] | 2.47 ± 0.073 | 2.67 ± 0.067 | 2.46 ± 0.082 | 2.88 ± 0.04
IQSSLMTNLTYFLHLSV [YCS4] | 2.15 ± 0.065 | 1.94 ± 0.049 | 1.89 ± 0.085 | 2.44 ± 0.058
YDSRSGTHNMYKEIRDV [RPL20A] | 3.11 ± 0.069 | 3.06 ± 0.064 | 3.16 ± 0.043 | 3.18 ± 0.056
LDLMFDEVYVQNSKFLK [YJL039C/NUP192] | 2.94 ± 0.066 | 2.94 ± 0.055 | 2.87 ± 0.071 | 2.87 ± 0.034
GKGRQSAKAELEKLVDH [PRE10] | 1.82 ± 0.099 | 2.19 ± 0.072 | 1.59 ± 0.28 | 1.14 ± 0.088
GASVISLTKDKSIRKDT [SIR4] | 3 ± 0.065 | 3.23 ± 0.055 | 3.06 ± 0.076 | 3.13 ± 0.072
LAVIMDNIGEIDESLFN [YCG1] | 3.08 ± 0.12 | 3.1 ± 0.064 | 3.13 ± 0.059 | 3 ± 0.12
LHVLVAHKLKKSLDSIP [FAS2] | 2.31 ± 0.091 | 2.1 ± 0.088 | 1.83 ± 0.24 | 1.68 ± 0.073
IMRILKSNGLAPEIPED [RPS13] | 2.14 ± 0.09 | 3.09 ± 0.15 | 1.9 ± 0.22 | 2.91 ± 0.057
RPLQKIMLLQLELGSCF [SIN4] | 1.41 ± 0.058 | 1.54 ± 0.065 | 1.79 ± 0.1 | 1.42 ± 0.061
SSENNQIILAYIKYNIL [SRP68] | 3.06 ± 0.065 | 2.82 ± 0.074 | 2.92 ± 0.076 | 2.88 ± 0.062
RFKMERAGVTHVLSRLS [RET1] | – | 1.55 ± 0.18 | 1.2 ± 0.27 | 1.3 ± 0.23
ATSFSRKKARTFDSSWN [FAS2] | 2.22 ± 0.17 | 2.99 ± 0.18 | 2.65 ± 0.16 | 3.05 ± 0.076
NFSNVTDLTNNSTDGAK [YIL149C/MLP2] | 2.82 ± 0.041 | 3.15 ± 0.046 | 3.41 ± 0.035 | 2.85 ± 0.034
ASKSGKLTQKLVTAGVA [CYT1] | 1.85 ± 0.068 | 1.83 ± 0.057 | 2.45 ± 0.062 | 1.95 ± 0.048
LVQKTVQESGNIDYQKG [GRR1] | 3.5 ± 0.1 | 3.37 ± 0.095 | 3.2 ± 0.09 | 3.23 ± 0.1
AQFVSNKQYHQANSNLT [NUT1] | 2.94 ± 0.081 | 3.21 ± 0.076 | 3 ± 0.1 | 3.23 ± 0.092
KKNRDKKIFGTGKRLAK [RPS24A] | 3.4 ± 0.05 | 3.23 ± 0.039 | 3.291 ± 0.028 | 3.26 ± 0.033
RLGSEADAKAFLDSMAQ [FAS2] | 3.38 ± 0.091 | 3.44 ± 0.081 | 3.21 ± 0.062 | 3.33 ± 0.11
FKCQEKDKGVYVVTSDE [SIR2] | 2.94 ± 0.076 | 3.08 ± 0.085 | 3.27 ± 0.072 | 3.34 ± 0.054
RYSNLVCKKADVDLHKR [RPS18A] | 3.05 ± 0.092 | 3.38 ± 0.096 | 3.58 ± 0.13 | 2.95 ± 0.083
LELAGMDALYEKIWFAI [SIR3] | 1.41 ± 0.095 | 1.53 ± 0.068 | 1.21 ± 0.11 | 1.15 ± 0.052
ANSSITPAFGSNNTGNT [YJL041W/NSP1] | 2.65 ± 0.068 | 2.86 ± 0.049 | 2.72 ± 0.048 | 2.87 ± 0.031
VEIIDQKKVLIDGPKAG [RPL14A] | 2.8 ± 0.18 | 2.65 ± 0.09 | 2.91 ± 0.076 | 2.72 ± 0.065
DWQKEDGIFSSKTDNIE [YMR153W/NUP53] | – | – | 3.22 ± 0.15 | 2.86 ± 0.2
